# From the DeepSol protein solubility set
# Assay: soluble on expression in E. coli; label from the status in PepcDB or PDB records
row,Sequence,soluble on expression in E. coli
1,DVQLVESGGGSVQAGGSLRLSCAVSGYKDRNYCMGWFRRAPGKEREGVAVIDSSGRTAYADSVKGRFTISRDVALDTAYLQMNSLKPEDTAMYYCAAGWSSLGSCGTNRNRYNYWGQGTQVTVSSRGRHHHHHH,soluble
2,MGHHHHHHSHMEYSYIPSFALYNNADMFQFFPRNKRLSTHQKSCLDEHARKMAVFMMKRQEEYRYYENLANQEQFSDDAHFSDNGMDSGFCSGATSTGQSASTSPAPVQLIPNPFFDPEAKTQSPVKLVDNPELFMESKKKSARISA,not soluble
3,MKAAHIIDEARLGIMLNDLRLPTIKTLWPQFAEQADKEGWPAARFLSAIAEHELAERDRRRVERHLAEAHLPPGKTLDSFAFDAVPMVSKAQVMAMTAGDSWLAKGANILLFGPPGGGKSHLAAAIGLALIENGWRVLFTRTTDLVQKLQVARRELQLESAIAKLDKFDLLILDLEHHHHHH,not soluble
4,MFSFNMFDHPIPRVFQNRFSTQYRCFSVSMLAGPNDRSDVEKGGKIIMPPSALDQLSRLNITYPMLFKLTNKNSDRMTHCGVLEFVADEGICYLPHWMMQNLLLEEGGLVQVESVNLQVATYSKFQPQSPDFLDITNPKAVLENALRNFACLTTGDVIAINYNEKIYELRVMETKPDKAVSIIECDMNVDFDAPLGYKEPERQVQHEESTEGEADHSGYAGELGFRAFSGSGNRLDGKKKGVEPSPSPIKPGDIKRGIPNYEFKLGKITFIRNSRPLVKKVEEDEAGGRFVAFSGEGQSLRKKGRKP,soluble
5,MSNTEERCDLSSSRDCPERHEHLLQRVTARAAEIGGGITVSRLMPSRQRRMIGAWCFLDHAGPAEFEPGGGLAVGPHPHIGLQTFTWMIQGEALHRDSLGNVQVIRPGQVNLMTAGHGIAHTEESLPDERHAHAAQLWIALPYEQRDIAPAFDHHPDLPRWQEQGVTFTLLAGALAGRQAPCRLYSPLLGADLACHDASTLQLTLDPHFEYGLLPLEGGLEVGGEHFAVNELAYLGDGRDGLQLQLDPGARVLLLGGAPFGAEIFMWWNFVGHSKGEIARAQKAWEEGDARFGRLDALEGPRLSAPPIPWKIDAE,not soluble
6,YTDRKNRIVEVDIASKAKRTVMQNPEGEFYEVNYSPDSQWITYTKSGANNMSVIYVYHLTSGKEYPVTE,not soluble
7,MSTGRTAITQPLRRLMRCSRALRRGTWPCSIGLQGIPIKSTPLQLRSCAQRLTFPGTSTGFLWEVWAMSYLRYVKIIGTVHVSPESVREVRETIIREKPDAIALELDYPRLLALLRRERLTLPQALKLGKMGIFGFILQELEMFFGRSFGESPGEEMIEAYKAAASLGIPVYLIDKPVNETLAGMLSSPPIEKLRFGIEVLASLLPGKLKELDYSYLMKEFREKFPHMYKVLVEERNLYMAINLMRIVDSLLEKKKKVKVVAVVGLGHKKGIERILNAHKPRAVKINSL,not soluble
8,MRDNPLVSILIPTFNRPMLLEKSLRSAVNQTYKNIEIVICDDSTNYDSKTVVESYMKRYKNIRYYFNNGPLGNFGLNNVKKCYELSKGEYINYLNDDDMFHKSKIMRMIRYFQNYKKITLVTSHRSVIDKNDNILPDINATKRIRYLNRPVSGRIIAKLMFNLGNFIGEPTTVLFKKSDVKNFGSLNGKQYYSLIDAATWFELLSKGYCVYIADTLSYFRIHEGQNTNRPEVSGRFLLEWKDLNDYGYRKKIIDSEFYKRFLLSFKKEYEKPKLEHHHHHH,not soluble
9,SDEFVNLKETELRLGLPGTDNVCEAKERVSCCNNNNKRVLSTDTEKEIESSSRKTETSPPRKAQIVGWPPVRSYRKNNIQSKKNESEHEGQGIYVKVSMDGAPYLRKIDLSCYKGYSELLKALEVMFKFSVGEYFERDGYKGSDFVPTYEDKDGDWMLIGDVPWEMFICTCKRLRIMKGSEAKGLGCGV,soluble
10,MDCVMKGLNKITCCLLAALLMPCAGHAENEQYGANFNNADIRQFVEIVGQHLGKTILIDPSVQGTISVRSNDTFSQQEYYQFFLSILDLYGYSVITLDNGFLKVVRSANVKTSPGMIADSSRPGVGDELVTRIVPLENVPARDLAPLLRQMMDAGSVGNVVHYEPSNVLILTGRASTINKLIEVIKRVDVIGTEKQQIIHLEYASAEDLAEILNQLISESHGKSQMPALLSAKIVADKRTNSLIISGPEKARQRITSLLKSLDVEESEEGNTRVYYLKYAKATNLVEVLTGVSEKLKDEKGNARKPSSSGAMDNVAITADEQTNSLVITADQSVQEKLATVIARLDIRRAQVLVEAIIVEVQDGNGLNLGVQWANKNVGAQQFTNTGLPIFNAAQGVADYKKNGGITSANPAWDMFSAYNGMAAGFFNGDWGVLLTALASNNKNDILATPSIVTLDNKLASFNVGQDVPVLSGSQTTSGDNVFNTVERKTVGTKLKVTPQVNEGDAVLLEIEQEVSSVDSSSNSTLGPTFNTRTIQNAVLVKTGETVVLGGLLDDFSKEQVSKVPLLGDIPLVGQLFRYTSTERAKRNLMVFIRPTIIRDDDVYRSLSKEKYTRYRQEQQQRIDGKSKALVGSEDLPVLDENTFNSHAPAPSSRLEHHHHHH,not soluble
11,MDGTRTSLDIEEYSDTEVQKNQVLTLEEWQDKWVNGKTAFHQEQGHQLLKKHLDTFLKGKSGLRVFFPLCGKAVEMKWFADRGHSVVGVEISELGIQEFFTEQNLSYSEEPITEIPGTKVFKSSSGNISLYCCSIFDLPRTNIGKFDMIWDRGALVAINPGDRKCYADTMFSLLGKKFQYLLCVLSYDPTKHPGPPFYVPHAEIERLFGKICNIRRLEKVDAFEERHKSWGIDCLFEKLYLLTEK,not soluble
12,MGSDKIHHHHHHAMSNKPVVLQGQIEATEIRISGKLPGRIDTFLVREGQYVKMGDTLVVINSPEAWAKFQQVNALEDIAKFQNKKIDDGTRRQIVRSVEELWNKSKSDLQLATVTYDRIQALYKDSVVTSQRKDEVEAMYKAAVAAERAAHQQFLLVKDGAQKEDKESARSLVDAARGTVNEVQALLMDARLTAPEDGQISTIYPKRGELVGAGTPIMSLVVLDDCHVVLNVREDYMPYFRMNENFMGDIPALDVKNKAFKINYISPLGSFATWRSTKQTGTYDMKTFEIHALPVEPMEGLRPGMSVLVNLDELK,not soluble
13,EHDNTSYICKKIDEDEYVLSARLEIEKVNEMFGLDLPESDDYLTVGGLILNQYQSFPKLHELVRVGRYQFKIIKVTATKIELVRLKVME,not soluble
14,MKPADIDKLISEIRTAIYAEQSHRKIIEIDPDIYRKVRAALSDLQAEASEYFQKQDIENYLTMNNRFQTLKRDFRSLFQRRFEKIVAKAIYDISGETLSLLTDEEKEFIEKIHNIITEEFESFIPKREEKNEARAEAQPAPADESPTAIADQKPQEEPQVVQDQHQPPAEIPSENIEIKKEDGRYVLVMITEDLPPIAQLDRNYSLHSNDLVYLPQDLASILAKRKVALVLDQ,soluble
15,MIMKVGIMSDTHDNLSAIRLAVEFFNREGVNLVLHAGDFVAPFVAKELSNLKAPLKGVFGNNDGEREGLREKLGIKDDILTLNLDGLKVVMLHGTDERVVEAFAKSQLYDIVIRGHTHKYGIQEVGRTIVVNPGEVCGYLTGIKSVALLNTTEREVRIINLKTGEILGIISLLEHHHHHH,not soluble
16,MGSDKIHHHHHHMNTANPEQALAMSQAKLLCDTMSTLAESPVWDERRQVLFWCDILGKTVRSAALEPGQYREWPFPHTVSSLGLRENGDLVVACGMDIVILDPDSGRTRLLHSIPAPEGIPCRLNDGRVGPDGAFWVGTMHNVPLSEMKPYGELWRITATSAKRMQTGLTCPNGLAFSPDGSIMWQSDSVQKWIRRRNFYRVNGLFDEGVLVAQMTEETGRPDGGCLDSSGTYYSAGVSAGMLNVFAEDGGKQTAAIKMPVPHPTMPCFGGPDFSTLFVTSHRHNMSAERLEQAPFSGGVWMIPTQTKGFAPFRFEG,not soluble
17,MDDQGCPRCKTTKYRNPSLKLMVNVCGHTLCESCVDLLFVRGAGNCPECGTPLRKSNFRVQLFEDPTVDKEVEIRKKVLKIYNKREEDFPSLREYNDFLEEVEEIVFNLTNNVDLDNTKKKMEIYQKENKDVIQKNKLKLTREQEELEEALEVERQENEQRRLFIQKEEQLQQILKRKNKQAFLDELESSDLPVALLLAQHKDRSTQLEMQLEKPKPVKPVTFSTGIKMGQHISLAPIHKLEEALYEYQPLQIETYGPHVPELEMLGRLGYLNHVRAASPQDLAGGYTSSLACHRALQDAFSGLFWQPS,soluble
18,MGSDKIHHHHHHMVAQIQELEAQHWVKTRSSLDPNESTFLIWKGKIYAFIPGEKRQLLFKILGLSVSRCIPTAEGSWDFTSRELTYYLNPKTDEILRKWENPWTSETVPVIHVANNPVQGKFEGNFPAQVDGDSTTFVFDIFPYYPNPLADDPKFAEYSPNPIYQAAELFKLTVPTADLFNSALPSVSELKLSWDRIGQWLPWMKMGDRPGQLIYSAVGSKVNGLTELPPLLQDEINNRIPLYKQAPKALIDGEDMTSWLYFQKHFPAYLAGEIFPLPQAEEL,not soluble
19,MGSDKIHHHHHHMSDYYKTYDLKHVINASGKMTILGVSKVPEVAIQAQQFGDTHFFEIKDLVDKTGAYIAKKLGTEGAVVVNSASAGIAEAVAGIIGQGSKYHAYHPFSPRFTKREIILPKGQNVDYGTPEEVMIELGGGQVVEAGYANMCTPEHIEMMITEQTAAIFYVKSHHAVQKSMLTIPEALEVAHKHDLPLILDAAAEEDLKKYVDLGVDVVLFSGAKAIEGPASGLVFGKEPYIGWTKLQSLGIGRAMKIGKENILGFTTALIHYLDNGPESGDAMKARLHPFVAALNEVPHLNVKEVQDGAGRPIFRAAVTVEATSPNNAKQVTAELKAGDPAIYTREYRANEGIIEFDIRAVDQAEMDLIVTRLKEILA,not soluble
20,MSAHDRKEPAQRCPAALAAERLQIGLEHCGISADVHQGYGVSLVSVWTNLVVWTDGLAYRWWTGKISAKTGRRLYRVYAVDNPITVAHCVAQRYEELRKASHHSRGVVERTS,not soluble
21,MKRIITLTVVNRSGVLNRITGLFTKRHYNIESITVGHTETAGVSRITFVVHVEGENDVEQLTKQLNKQIDVLKVTDITNQSIVQRELALIKVVSAPSTRTEINGIIEPFRASVVDVSRDSIVVQVTGESNKIEALIELLKPYGIKEIARTGTTAFARGTSKRRHPIKQYLLYKTLEHHHHHH,soluble
22,MEEVYASELRGREPETVDTLFLDNTQGGVIGGINEKLTKLELLSMVKCGLTTLKGMPVLPALNYLDLSDNELGDDASFDVLIKCAPEIKKITLSGNRLTLDNVRTLKMLPNLMELDLSNNSSLGLLDDYRVKMFEMIPSLKILDGCDVDGEEVEEEFAAGEGAEDSDEGDSDEDGPGLSYLNKSQFSDDETDDYVVPEAGDAETRGAKRAASADCDEPEAKKSAE,soluble
23,AHHHHHHGSLKLVENVVGRVSEEENKVPEVQVPQSSIDEELKKIVEQIKARIYVVGVGGAGCNTVNRMMEVGVTGAKIIAVNTDAQDLLKVKAHQKILIGKELTRGLGAGNDPKIGEEAAKESERELRDALEGADMVFITCGLGGGTGTGAAPVIAEIARKMGALTVSVVTLPFTMEGIRRAKNAEYGLKRLVKYSDTVIVIPNDKLLEVAPKLPIQMAFKVADEILVQAVKGITELITKPGLVNLDFNDVRAVMKDGGVAMIGIGESDSEKRALEAAEQALNSPLLDVDISGATGALIHISGADVKLEEAQQIIEYVTRNVDPKAQVIWGIQLEPELEKTIRVMVVITGVTSRYITPEEETPLETPEESPSIEISIPEL,soluble
